This is an account of results in PMC8847575, “HSL1 and BAM1/2 impact epidermal cell development by sensing distinct signaling peptides” (Nature Communications, 2022).

“And” between values parts separate entries of the source, which are not always exact repeats. Identical values can stand only once. Like-named read-outs stand apart in the source and are kept apart here. Ends that are not written are not given here.

For assay [1], the target named is T1, HSL1 (HAESA-LIKE 1) ectodomain (Arabidopsis, UniProt Q9SGP2 17-618).
T1 chain: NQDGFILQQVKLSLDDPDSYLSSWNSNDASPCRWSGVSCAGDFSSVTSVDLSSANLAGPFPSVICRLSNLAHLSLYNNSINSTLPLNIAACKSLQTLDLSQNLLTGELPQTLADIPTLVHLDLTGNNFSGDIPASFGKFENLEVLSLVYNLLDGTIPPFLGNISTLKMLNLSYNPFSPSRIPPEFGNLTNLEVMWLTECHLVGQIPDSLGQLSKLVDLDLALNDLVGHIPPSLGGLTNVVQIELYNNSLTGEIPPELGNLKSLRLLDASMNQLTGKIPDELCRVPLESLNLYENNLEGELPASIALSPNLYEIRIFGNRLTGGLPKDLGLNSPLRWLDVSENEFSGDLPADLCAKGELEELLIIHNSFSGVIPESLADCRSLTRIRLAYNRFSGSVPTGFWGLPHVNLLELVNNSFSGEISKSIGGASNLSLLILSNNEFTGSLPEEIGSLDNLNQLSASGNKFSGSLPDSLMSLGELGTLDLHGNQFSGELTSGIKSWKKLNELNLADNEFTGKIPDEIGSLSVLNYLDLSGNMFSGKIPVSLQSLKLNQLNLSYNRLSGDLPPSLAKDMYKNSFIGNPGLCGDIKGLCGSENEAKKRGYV
Description: ITC. On the technique in general: Isothermal titration calorimetry measures the heat released or taken up as one component is titrated into another.

Assay [2] addresses T2, biotinylated HSL1 ectodomain with Avi-tag (Arabidopsis, UniProt Q9SGP2 17-618, biotin on the Avi-tag (BirA)).
T2 chain: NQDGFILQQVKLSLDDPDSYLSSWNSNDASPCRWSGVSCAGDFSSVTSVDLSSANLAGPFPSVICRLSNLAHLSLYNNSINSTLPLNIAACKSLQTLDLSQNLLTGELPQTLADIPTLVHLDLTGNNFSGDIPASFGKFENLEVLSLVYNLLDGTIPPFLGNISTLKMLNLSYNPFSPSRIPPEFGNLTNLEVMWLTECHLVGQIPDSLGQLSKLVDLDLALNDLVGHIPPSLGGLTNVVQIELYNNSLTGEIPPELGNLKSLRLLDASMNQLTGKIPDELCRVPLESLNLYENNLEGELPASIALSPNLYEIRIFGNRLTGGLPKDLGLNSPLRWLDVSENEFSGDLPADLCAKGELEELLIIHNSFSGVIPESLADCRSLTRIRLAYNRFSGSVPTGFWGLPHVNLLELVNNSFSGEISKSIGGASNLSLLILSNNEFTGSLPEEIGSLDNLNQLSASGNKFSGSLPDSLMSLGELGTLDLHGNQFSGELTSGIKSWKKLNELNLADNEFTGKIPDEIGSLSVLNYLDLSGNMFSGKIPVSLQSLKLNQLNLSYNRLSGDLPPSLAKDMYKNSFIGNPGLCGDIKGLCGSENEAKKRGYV
Put plainly: GCI.

The target in assay [3] is T2, biotinylated HSL1 ectodomain with ….
Assay [4] has the same target. Put plainly: GCI.
The target is the same in assay [5].
The target of assay [6] is T3, BAM1 (BARELY ANY MERISTEM 1) ectodomain (Arabidopsis, UniProt O49545 20-637).
T3 chain: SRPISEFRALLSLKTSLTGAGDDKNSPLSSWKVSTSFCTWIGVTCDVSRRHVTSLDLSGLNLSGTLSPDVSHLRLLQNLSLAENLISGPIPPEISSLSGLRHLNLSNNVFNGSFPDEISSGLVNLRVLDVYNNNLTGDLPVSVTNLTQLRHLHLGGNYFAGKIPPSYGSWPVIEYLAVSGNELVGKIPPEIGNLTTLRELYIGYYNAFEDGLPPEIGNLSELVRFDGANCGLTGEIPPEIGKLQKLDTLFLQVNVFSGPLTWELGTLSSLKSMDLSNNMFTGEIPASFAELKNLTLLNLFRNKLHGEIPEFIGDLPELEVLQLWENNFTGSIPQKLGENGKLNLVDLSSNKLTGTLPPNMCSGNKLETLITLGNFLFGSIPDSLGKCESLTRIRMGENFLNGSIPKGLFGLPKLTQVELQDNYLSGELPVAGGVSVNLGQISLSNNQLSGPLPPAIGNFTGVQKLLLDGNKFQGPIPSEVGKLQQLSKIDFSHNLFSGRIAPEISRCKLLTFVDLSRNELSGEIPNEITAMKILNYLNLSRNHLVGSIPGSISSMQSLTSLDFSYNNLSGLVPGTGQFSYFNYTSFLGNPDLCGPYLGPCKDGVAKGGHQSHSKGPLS
Description: ITC.

B1: IDL4 (IDA-LIKE 4) mature peptide (peptide)
chain: PVPASAPSRKHN
For B1, the Kd was 2020 nM in assay [1]; 1850 nM in assay [2]; 2700 nM and 1000 nM in assay [5]. Also, the koff is 0.52 s⁻¹ and 0.75 s⁻¹ in assay [3]; 0.65 s⁻¹ in assay [4].

B2: CLE9 variant with the first residue substituted by the corresponding one of IDA (peptide)
chain: PLVPSGPNPLHN
B2 came in with a Kd in assay [6] of 91 nM.

B3: CLE9^R109PV111P (peptide)
chain: PLPPSGPNPLHN
modifications: also: Hyp112 and Hyp115 presumed as in wild-type
Molecule B3 gave an equilibrium dissociation constant (Kd) in assay [6] of 2240 nM.

B4: IDL2 (IDA-LIKE 2) mature peptide (peptide)
chain: YVPVPASGPSRKHN
modifications: also: conserved central hydroxyproline, position not given here
In assay [1], B4 returned a Kd of 121 nM.

B5: IDL1 (IDA-LIKE 1) mature peptide (peptide)
chain: YVLVPPSGPSMRHN
modifications: not fully specified; also: conserved central hydroxyproline, position not given here
Consider B5, for which binding in assay [1] was put at a Kd of 590 nM.

B6: IDA (INFLORESCENCE DEFICIENT IN ABSCISSION) mature peptide (peptide)
chain: YVPIPPSAPSKRHN
modifications: also: hydroxyproline at Pro64 (precursor numbering), position in chain not settled
As for B6, the Kd is 400 nM in assay [1]; 580 nM in assay [2]; 655 nM and 422 nM in assay [5]. The koff in assay [3] was 0.15 s⁻¹ and 0.12 s⁻¹; in assay [4], 0.127 s⁻¹.

B7: IDL3 (IDA-LIKE 3) mature peptide (peptide)
chain: PVPTSGPSRKHN
modifications: not fully specified; also: conserved central hydroxyproline, position not given here
As for B7, the Kd is 690 nM in assay [1]; 800 nM in assay [2]; 608 nM and 1000 nM in assay [5]. Further, the dissociation rate constant (koff) is 0.59 s⁻¹ and 0.49 s⁻¹ in assay [3]; 0.55 s⁻¹ in assay [4].

For orientation: Kd means the free concentration of one partner at which half of the binding sites on the other are occupied at equilibrium, for simple one-to-one binding. Broadly, the koff is a measure of how fast the partners let go of each other.
